According to paper doi:10.1101/705442:

Target: extracellular matrix proteins (ELISA of Figure S3: 'In each case')
Assay: ELISA

capillary morphogenesis gene 2 (ANTXR2/CMG2), biotinylated CMG2-AviTag construct (from UniProt P58335 34-489) (receptor)
Kd: 500 to 1000 nM
